According to patent publication US20260232732A1 (FUNDACI INSTITUT DE RECERCA CONTRA LA LEUC MIA JOSEP …, published 2026):
Blank lines part the entries; values can stand above or below the binder they belong to. Where no end group is shown, it is not given here. The star is where a group is joined. Biotin = O=C1N[C@H]2[C@H](CS[C@H]2CCCCC(=O)*)N1

Assays:
naked peptide TSPIPNMADD = molecular target: T1, naked peptide TSPIPNMADD (human); test: ELISA naked peptide; scFv 1 ug/mL; repI
T1 peptide: TSPIPNMADD
Protocol: (§1) The peptides were synthesized naked or with a N-terminal Biotin modification with a purity of >98%. All four scFvs were verified by ELISA that can be detected with anti-His antibodies. ELISA was performed for scFv-peptide binding validation. Briefly, naked peptides were coated (50 μg/mL) in 0.58M carbonate-bicarbonate buffer pH9.5, 100 μL/well, 4° C. O/N. Then after blocking (3% BSA-PBS, 300 μL/well 37° C. 1.5 h) and washing (PBS+Tween-20 0.05% v/v (0.05% PBST), wells were incubated with each purified scFv antibody at concentration of 1 μg/mL in PBS at 37° C. 1 h. After washing (0.05% PBST), wells were incubated with secondary antibodies (goat anti-His IgG-HRP) in PBS, 37° C., 30 min. After washing, and incubation with TMB substrate, reactions were stopped with 2M HCl and reading was quantified at OD450.
(§2) Then a library of overlapping peptides were designed and constructed separately to produce 16 different peptides, covering full antigen sequence of total 48 aa. Peptide size was 10aa, with 7aa overlapping and ELISA screening of scFv against each peptide was performed in duplicate. Screening was performed using naked peptides in a standard plate or biotinylated peptides using avidin-plates.

naked peptide SESTSSMEDY = molecular target: T2, naked peptide SESTSSMEDY (human); test: ELISA naked peptide; scFv 1 ug/mL; repI
T2 peptide: SESTSSMEDY
Protocol: as §1, §2

naked peptide DYGSESTSSM = molecular target: T3, naked peptide DYGSESTSSM (human); test: ELISA naked peptide; scFv 1 ug/mL; repI
T3 peptide: DYGSESTSSM
Protocol: as §1, §2

naked peptide YCEKNNVRQF = molecular target: T4, naked peptide YCEKNNVRQF (human); test: ELISA naked peptide; scFv 1 ug/mL; repI
T4 peptide: YCEKNNVRQF
Protocol: as §1, §2

naked peptide TSSMEDYVNF = molecular target: T5, naked peptide TSSMEDYVNF (human); test: ELISA naked peptide; scFv 1 ug/mL; repI
T5 peptide: TSSMEDYVNF
Protocol: as §1, §2

naked peptide YVNFNFTDFY = molecular target: T6, naked peptide YVNFNFTDFY (human); test: ELISA naked peptide; scFv 1 ug/mL; repI
T6 peptide: YVNFNFTDFY
Protocol: as §1, §2

naked peptide MADDYGSEST = molecular target: T7, naked peptide MADDYGSEST (human); test: ELISA naked peptide; scFv 1 ug/mL; repI
T7 peptide: MADDYGSEST
Protocol: as §1, §2

naked peptide SSMEDYVNFN = molecular target: T8, naked peptide SSMEDYVNFN (human); test: ELISA naked peptide; scFv 1 ug/mL; repI
T8 peptide: SSMEDYVNFN
Protocol: as §1, §2

naked peptide MTPTDFTSPI = molecular target: T9, naked peptide MTPTDFTSPI (human); test: ELISA naked peptide; scFv 1 ug/mL; repI
T9 peptide: MTPTDFTSPI
Protocol: as §1, §2

naked peptide SMEDYVNFNF = molecular target: T10, naked peptide SMEDYVNFNF (human); test: ELISA naked peptide; scFv 1 ug/mL; repI
T10 peptide: SMEDYVNFNF
Protocol: as §1, §2

naked peptide MEDYVNFNFT = molecular target: T11, naked peptide MEDYVNFNFT (human); test: ELISA naked peptide; scFv 1 ug/mL; repI
T11 peptide: MEDYVNFNFT
Protocol: as §1, §2

naked peptide FNFTDFYCEK = molecular target: T12, naked peptide FNFTDFYCEK (human); test: ELISA naked peptide; scFv 1 ug/mL; repI
T12 peptide: FNFTDFYCEK
Protocol: as §1, §2

naked peptide TDFTSPIPNM = molecular target: T13, naked peptide TDFTSPIPNM (human); test: ELISA naked peptide; scFv 1 ug/mL; repI
T13 peptide: TDFTSPIPNM
Protocol: as §1, §2

naked peptide KNNVRQFAS = molecular target: T14, naked peptide KNNVRQFAS (human); test: ELISA naked peptide; scFv 1 ug/mL; repI
T14 peptide: KNNVRQFAS
Protocol: as §1, §2

naked peptide TDFYCEKNNV = molecular target: T15, naked peptide TDFYCEKNNV (human); test: ELISA naked peptide; scFv 1 ug/mL; repI
T15 peptide: TDFYCEKNNV
Protocol: as §1, §2

[1] = molecular target: T16, biotin-peptide TSSMEDYVNF (human); test: ELISA biotin-peptide; scFv 0.15625 ug/mL; repII
T16 peptide: Biotin-TSSMEDYVNF
Protocol: as §1
(§3) ELISA with biotin-conjugated peptides (5 μg/mL) was performed very similar to described above with minor modifications.
(§4) A full curve ELISA was performed for each positive scFv/biotin-peptide pair in order to confirm previous results. Tables 15-17 show ELISA results of the dose-dependent full curve for each positive peptide with scFv “CCR9_HUM”, “Comp-2” and “Comp-3”, respectively.

[2] = molecular target: T17, biotin-peptide SMEDYVNFNF (human); test: ELISA biotin-peptide; scFv 0.15625 ug/mL; repII
T17 peptide: Biotin-SMEDYVNFNF
Protocol: as §1, §3, §4

[3] = molecular target: T18, biotin-peptide MEDYVNFNFT (human); test: ELISA biotin-peptide; scFv 0.15625 ug/mL; repII
T18 peptide: Biotin-MEDYVNFNFT
Protocol: as §1, §3, §4

[4] = molecular target: T19, biotin-peptide SSMEDYVNFN (human); test: ELISA biotin-peptide; scFv 0.15625 ug/mL; repII
T19 peptide: Biotin-SSMEDYVNFN
Protocol: as §1, §3, §4

[5] = molecular target: T20, Peptide 2-BSA (GSESTSSMED-C conjugated to BSA) (human); test: ELISA, BSA-conjugated peptide coated
T20 peptide: GSESTSSMEDC(BSA)
Protocol: (§5) In brief, plates with each non-conjugated peptide (50 μg/mL) or BSA-conjugated peptide (5 μg/mL) were coated in 0.58M carbonate-bicarbonate buffer pH9.5, 100 μL/well, at 4° C. […] After washing, wells were incubated with the 3, 3′,5,5′-Tetramethylbenzidine (TMB) HRP substrate and reactions were stopped with 2M HCl and OD450 was recorded.

[6] = molecular target: T21, Peptide 1-BSA (MADDYGSEST-C conjugated to BSA) (human); test: ELISA, BSA-conjugated peptide coated
T21 peptide: MADDYGSESTC(BSA)
Protocol: as §5

[7] = molecular target: T22, Peptide 4, non-conjugated (SMEDYVNFNF-C) (human); test: ELISA; Ab 0.5 ug/mL; repI
T22 construct: With the extra C-terminal Cys
T22 peptide: SMEDYVNFNFC
Protocol: as §5

[8] = molecular target: T23, Peptide 4-BSA (SMEDYVNFNF-C conjugated to BSA) (human); test: ELISA; Ab 0.5 ug/mL; repI
T23 peptide: SMEDYVNFNFC(BSA)
Protocol: as §5

[9] = molecular target: T21, Peptide 1-BSA (MADDYGSEST-C conjugated …); test: ELISA; Ab 0.5 ug/mL; repI
Protocol: as §5

[10] = molecular target: T24, Peptide 2, non-conjugated (GSESTSSMED-C) (human); test: ELISA; Ab 0.5 ug/mL; repI
T24 construct: With the extra C-terminal Cys
T24 peptide: GSESTSSMEDC
Protocol: as §5

[11] = molecular target: T25, Peptide 3, non-conjugated (SSMEDYVNFN-C) (human); test: ELISA; Ab 0.5 ug/mL; repI
T25 construct: With the extra C-terminal Cys
T25 peptide: SSMEDYVNFNC
Protocol: as §5

- OD450 (naked peptide TSPIPNMADD): 0.03 OD
- OD450 (naked peptide SESTSSMEDY): 0.03 OD
- OD450 (naked peptide DYGSESTSSM): 0.02 OD
- OD450 (naked peptide YCEKNNVRQF): 0.04 OD
- OD450 (naked peptide TSSMEDYVNF): 0.03 OD
- OD450 (naked peptide YVNFNFTDFY): 0.03 OD
- OD450 (naked peptide MADDYGSEST): 0.03 OD
- OD450 (naked peptide SSMEDYVNFN): 0.9 OD
- OD450 (naked peptide MTPTDFTSPI): 0.04 OD
- OD450 (naked peptide SMEDYVNFNF): 1.54 OD
- OD450 (naked peptide MEDYVNFNFT): 0.84 OD
- OD450 (naked peptide FNFTDFYCEK): 0.04 OD
- OD450 (naked peptide TDFTSPIPNM): 0.05 OD
- OD450 (naked peptide KNNVRQFAS): 0.03 OD
- OD450 (naked peptide TDFYCEKNNV): 0.05 OD
- OD450 [1]: 0.18 OD
- OD450 [2]: 1.6 OD
- OD450 [3]: 1.37 OD
- OD450 [4]: 1.59 OD
B1: CCR9_HUM2 scFv (humanized anti-CCR9 scFv, SEQ ID NO: 17 with C-terminal 6xHis tag) (scFv)
scFv: QVQLVQSGAEVKKPGASVKVSCTASGYSFTDYIIYWVKQAHGQSLEWMGYIDPNNYNTRYSQKFQGKVTITVDKSSTSAYMELNSLTSDDTAVYYCARDVYWGQGTTVTVSSGGGGSGGGGSGGGGSGGGGSDVVMTQTPLSLSVTPGQPASISCRSSQSLVHSNGKTYLQWYLQKPGQSPKLLIYKVSNRFSGVPDRFSGSGSGTDFTLKISRVEAEDVGVYFCAQSTHVWTFGGGTKVEIKRAHHHHHH

- binding result [5]: no binding (tested: 1 ug/mL)
- binding result [6]: no binding (tested: 1 ug/mL)
- OD450 [7]: 2.29 OD
- OD450 [8]: 2.67 OD
- OD450 [9]: 0.03 OD
- OD450 [10]: 0.02 OD
- OD450 [11]: 1.94 OD
B2: anti-CCR9 antibody clone 115 (murine, from hybridoma #115) (antibody, V domains shown)
VH: QVQLKQSGPELVKPGTSVRVSCTASGYSFTDYIIYWVKQSHGRSLEWIGYIDPNNYNTRYSQKFKGKATLTVDKSSTSAFMHLNSLTSDDSAVYYCARDVYWGQGTTLTVSS
VL: DVVMTQTPLSLTVSLGDQASISCRSSQSLVHSNGKTYLQWYLQKPGQSPKLLIYKVSNRFSGVPDRFSGSGSGTDFTLKISRVEAEDLGVYFCAQSTHVWTFGGGTKLEIKR
notes: Mouse IgG1

- OD450 (naked peptide TSPIPNMADD): 0.02 OD
- OD450 (naked peptide SESTSSMEDY): 0.03 OD
- OD450 (naked peptide DYGSESTSSM): 0.03 OD
- OD450 (naked peptide YCEKNNVRQF): 0.04 OD
- OD450 (naked peptide TSSMEDYVNF): 0.04 OD
- OD450 (naked peptide YVNFNFTDFY): 0.03 OD
- OD450 (naked peptide MADDYGSEST): 0.02 OD
- OD450 (naked peptide SSMEDYVNFN): 0.09 OD
- OD450 (naked peptide MTPTDFTSPI): 0.02 OD
- OD450 (naked peptide SMEDYVNFNF): 0.05 OD
- OD450 (naked peptide MEDYVNFNFT): 0.05 OD
- OD450 (naked peptide FNFTDFYCEK): 0.05 OD
- OD450 (naked peptide TDFTSPIPNM): 0.07 OD
- OD450 (naked peptide KNNVRQFAS): 0.05 OD
- OD450 (naked peptide TDFYCEKNNV): 0.03 OD
B3: Comparative antibody 3 (Comp-3) scFv, SR_92R (Somovilla-Crespo et al. 2018), His-tagged (scFv)
scFv: EVKLEESGGGLVQPGGSMKLSCVASGFTFNKFWMNWVRQSPEKGLEWVAEIRLKSNNYATHYAESVKGRFTISRDDSKSSVYLQMNNLRAEDTGIYYCASDGWFAYWGQGTLVTVSAGGGGSGGGGSGGGGSGGGGSDVVMTQTPLSLPVSLGDQASISCRSSQSLVHSNGNTYLNWCLQRPGQSPKSLIYKVSNRFSGVPDRFSGSGSGTDFTLKISRVEAEDLGVYFCSQSTHFPRTFGGGTKLEIKRHHHHHH
